Results taken from PMC7542444.

Experiments:
[1] = target: LEDGF/ΔIBD-B56γ chimera (LEDGF residues 1-324 and B56γ residues 11-380), wild type, O75475;Q13362; experiment: pull-down; details: parent: est. 100; read off a plot
[2] = target: His6-STLV-1 IN (6xHis-tagged STLV-1 MarB43 IN), wild type; experiment: pull-down; details: parent: est. 100; read off a plot

Substance	percent of parent (% of wild type) [1]	percent of parent (% of wild type) [2]
His6-STLV-1 IN (6xHis-tagged STLV-1 MarB43 IN), wild type E218A	5	
His6-STLV-1 IN (6xHis-tagged STLV-1 MarB43 IN), wild type H209A	23	
His6-STLV-1 IN (6xHis-tagged STLV-1 MarB43 IN), wild type H209A; P211A	21	
His6-STLV-1 IN (6xHis-tagged STLV-1 MarB43 IN), wild type I216A	1	
His6-STLV-1 IN (6xHis-tagged STLV-1 MarB43 IN), wild type P214A	57	
His6-STLV-1 IN (6xHis-tagged STLV-1 MarB43 IN), wild type P215A; P217A	15	
LEDGF/ΔIBD-B56γ chimera (LEDGF residues 1-324 and B56γ residues 11-380), wild type (from UniProt O75475;Q13362) E78A; T81A; H82A		150
LEDGF/ΔIBD-B56γ chimera (LEDGF residues 1-324 and B56γ residues 11-380), wild type (from UniProt O75475;Q13362) R84A		140
LEDGF/ΔIBD-B56γ chimera (LEDGF residues 1-324 and B56γ residues 11-380), wild type (from UniProt O75475;Q13362) R143A		46
